The text below walks through data of patent publication US20060058229A1, “Peptides and methods for cell death regulation” (priority 2002, published 2006).

Data set [1] concerns the target T1, XIAP (Homo sapiens, UniProt P98170).
T1 construct: Full length xiap was amplified by PCR and subcloned into the EcoRI, ApaI site of this pcDNA3; made in house; host or cells: in vitro transcription-translation system (Promega); UBCH5C from E. coli BL21 (pLysS)
Put plainly: In vitro XIAP self-conjugation assay. Type of data set: biochemical. Here is the method: IAP-E2 Binding Assay for Measuring Self-Conjugation
^35S-methionine labeled DIAP1 or XIAP was generated in an in vitro transcription-translation system (Promega) from diap1-pET14b and xiap-pcDNA3.1 respectively. For purification of His-UBCD1 and His-UBCH5C, ubcD1-pET14b and ubcH5C-pT7-7 were expressed in BL21 (pLysS) and purfied on a Ni-column according to the manufacturer's protocol (Novagen). ^35S-DIAP1 or ^35S-XIAP was incubated with purified UBCD1 or UBCH5C respectively in the absence or presence of the W-7, H2-9 or H2-9W7 peptides. Following incubation of 15 min in room temperature in 20 mM Tris pH7.6, 2 mM DTr, Ni-NTA Agarose beads (Qiagen) were added for additional 30 minutes. The beads were subsequently washed four times with the Tis/DTT buffer, eluted with Laemli buffer and subjected to 10% SDS-PAGE. ^35S-DIAP1 or ^35S-XIAP was visualized by Phosphorimaging.
^35S-methionine labeled mutant and wild type DIAP1, or wild type XIAP were generated in an in vitro transcription-translation system (Promega) from diap1-pET14b, diap1^21-4S pET14b and xiap pcDNA3.1 plasmids. For purification of His-UBCD1 and His-UBCH5C, ubcD1-pET14b and ubcH5C-pT7-7 were expressed in BL21 (pLysS) and purified on a Ni-column according to the manufacturer's protocol (Novagen). […]

Data set [2] concerns the target DIAP1 (Drosophila IAP1), wild type, 35S-methionine labeled, in vitro translated from diap1-pET14b (UniProt Q24306).
Data set [3] addresses His-DIAP1 21-4S mutant (RING domain mutant, Cys 406 to Tyr), 35S-methionine labeled, in vitro translated from diap1 21-4S pET14b (UniProt Q24306).
Data set [4] has as its system DIAP1. Put plainly: Ectopic expression (Gal4/UAS) in Drosophila imaginal discs and embryos, anti-DIAP1 labeling. The format is in vivo. From the text: Mitotic recombination was induced in the developing eye imaginal discs using the Flp-FRT method36 and ey-flipase. Gal4/UAS system was used for ectopic expression.
GST-DIAP16 was expressed in BL21 (pLysS) bacteria, and was gel purified before immunizing rabbits (Cocalico Biologicals). diap1(WT)-pET14b was used to express His-DIAP1 in BL21(pLysS) and was purified according to the manufacturer's protocol (Novagen) and immobilized on nitrocellulose paper to affinity purify anti-DIAP1 antisera Rabbit anti-β-galactosidase antibody (Cappel, ICN), mouse-anti-β-gatosdase antibody (Sigma), monoclonal anti-Engrailed antibody (Developmental Studies Hybridoma Bank), Rabbit CM1 antibody24 and mouse anti-HA antibody (Babco) were used to stain embryos and imaginal discs under standard conditions. For western blots, 6-18 h hour embryos were homogenized in the lysis buffer (20 mM Tris pH 7.5, 100 mM NaCl, 1% NP-40, 2 mM DTT) and the cell debns was spun down. The supernatant was run on 15% SDS-PAGE gels, transferred to nitrocellulose sheets and probed with Rabbit anti-DIAP1 antibody. Western blot was detected with ECL (Amersham).
IAP degradation in thymocytes is a regulated process, wherein glucocorticoids can trigger IAP degradation by unknown mechanisms. To determine whether DIAP1 degradation is also regulated in Drosophila, we co-expressed the cell death promoting protein RPR and the baculovirus p35 caspase inhibitor^21 in the wing imaginal disc posterior compartment using the engrailed (en)-Gal4 driner^22. Expression of p35 prevented RPR-expressing cells from dying, and the resulting cell population not undergoing apoptosis enabled us to observe cellular changes downstream of RPR. Whereas animals expressing RPR alone died as embryos, those compressing RPR and p35 survived to adulthood with wings indistinguishable from wild type (FIG. 2a). […] The wing imaginal discs were also labeled with CM1 antibody, which detects activated caspase-3 in humans and cross-reacts with activated caspases in Drosophila^23,24. In the control anterior compartment, sporadic apoptotic cells were intensely labeled with CM1.
Thus, the effect of the RING finger mutations on RPR-dependent DIAP1 degradation in embryos was determined. The protein distribution of DIAP1 was analyzed in embryos that express RPR under the prd-Gal4 driver (FIG. 3a, c). In wild type embryos, DIAP1 is homogenously distributed (FIG. 3b).

The target of another data set is T2, Diap1 in Cos-7 cells (Drosophila melanogaster, UniProt Q24306).
T2 construct: expressed in transfected cells; host or cells: Cos-7
T2 sequence (Q24306 1-438): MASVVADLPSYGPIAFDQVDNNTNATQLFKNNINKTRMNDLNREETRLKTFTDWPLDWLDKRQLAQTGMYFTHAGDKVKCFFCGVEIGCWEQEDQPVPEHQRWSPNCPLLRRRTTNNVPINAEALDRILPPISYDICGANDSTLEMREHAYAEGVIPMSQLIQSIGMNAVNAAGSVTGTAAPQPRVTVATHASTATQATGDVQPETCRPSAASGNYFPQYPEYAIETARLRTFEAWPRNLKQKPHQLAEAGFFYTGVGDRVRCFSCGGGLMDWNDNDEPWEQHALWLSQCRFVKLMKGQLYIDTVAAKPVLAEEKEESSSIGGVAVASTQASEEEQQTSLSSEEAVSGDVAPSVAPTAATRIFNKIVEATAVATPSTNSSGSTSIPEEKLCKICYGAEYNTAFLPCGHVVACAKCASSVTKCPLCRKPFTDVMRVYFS
Put plainly: Cellular stability of DIAP1 (cycloheximide chase, Western blot). The format is cell-based. Conditions: Cos-7 cells co-transfected with Diap1-Flag and RPR-HA, cycloheximide 30 minute chase. As for the experimental part:
Cellular Stability of DIAP1
Cos-7 cells were transfected with 1 μg of wild-type (wt) Diap1-Flag-pcDNA3 along with 1 μg RPR-HA-pcDNA3 or 1 μg pcDNA3 vector (to maintain an equal amount of DNA in all transfections). Transfections were carried out by using FuGene™. 30 h aer transfection, 100 μg cycloheximide (Sigma) was added to each 60 mm dish for 0, 30, 60 min. Cells were harvested and lysed. Equal amount of protein were resolved via SDS-PAGE (10%) and blotted onto riocellulose paper. Diap1 was monitored by Western blot analysis using anti-Diap1 antibody and ECL.
In order to determine the effect of the IAP inhibitor (IAPi), Reaper's expression on IAP protein stability, a pulse-chase experiment was conducted using Cos-7 cells co-transfected with Diap1-Flag-pcDNA3 and RPR-HA-pcDNA3 or pcDNA3 vector alone treated with cycloheximide for 0, 30 or 60 minutes, followed by cell lysis, and immunoblot analysis.
(In general: A western blot detects proteins with antibodies after separation by electrophoresis.)

Data set [5] concerns the target T1, XIAP. Put plainly: In vitro ubiquitination reaction of 35S-XIAP. The format is biochemical. As for the experimental part: (§1) In Vitro Ubiquitination Reaction
^35S-methionine labeled mutant and wild type DIAP1, or wild type XIAP were generated in an in vitro transcription-translation system (Promega) from diap1-pET14b, diap1^21-4S pET14b and xiap pcDNA3.1 plasmids. For purification of His-UBCD1 and His-UBCH5C, ubcD1-pET14b and ubcH5C-pT7-7 were expressed in BL21 (pLysS) and purified on a Ni-column according to the manufacturer's protocol (Novagen). In vitro ubiquitination assays were carried out in a total volume of 12.5 μl and contained: ^35S-methionine labeled wild type or mutant DIAP1 or Wild type XIAP (approximately 10,000 cpm), and 250 ng E1 (made in baculovirus; vector is the kind gift of Dr. Kaznbiro Iwai, University of Osaka, Osaka Japan). Unless otherwise stated, 1.2 μg His-UBCD1 or His-UBCH5C was used in each reaction Reaction mire contained also 40 mM Tris-HCl, pH 7.6, 5 mM MgCl2, 1 mM DTT, 5 μg ubiquitin, 100 ng Ubiquitin-aldehyde, 2 mM ATPγS [Adenosine 5′-O-(3-thiotriphosphate)]. Reactions were incubated for 50 min at 37° C., and resolved, following addition of a sample buffer on SDS-PAGE (10%). Gels were dried and proteins visualized via Phosphorimaging (Fuji, Japan).

Data set [6] deals with DIAP1. Put plainly: In vitro ubiquitination reaction / self-conjugation of 35S-DIAP1. Conditions: 35S-DIAP1 with E1 and ubiquitin. The format is biochemical, Drosophila. Here is the method:
as §1
^35S-methionine labeled mutant and wild type DIAP1, or wild type XIAP were generated in an in vitro transcription-translation system (Promega) from diap1-pET14b, diap1^21-4S pET14b and xiap pcDNA3.1 plasmids. For purification of His-UBCD1 and His-UBCH5C, ubcD1-pET14b and ubcH5C-pT7-7 were expressed in BL21 (pLysS) and purified on a Ni-column according to the manufacturer's protocol (Novagen). In vitro ubiquitination assays were carried out in a total volume of 12.5 μl and contained: ^35S-methionine labeled wild type or mutant DIAP1 or Wild type XIAP (approximately 10,000 cpm), and 250 ng E1 (made in baculovirus; vector is the kind gift of Dr. Kaznbiro Iwai, University of Osaka, Osaka Japan). […]
In order to determine whether both amino acid consensus sequences described above are essential for IAP degradation; peptides were generated, with amino acid sequences as described in Tables 1, 3 and 5 above, containing one of each amino acid consensus sequence, or both and their ability to stimulate in vitro IAP ubiquitination was assessed (FIG. 13). ^35S-methionine labeled wild type DIAP1 was incubated with 250 ng E1 and ubiquitin, with or without the addition of the RPR wild type protein, or peptides containing the RHG amino acid consensus sequence of the RPR HID or GRIM proteins, and the reaction products were resolved by SDS-PAGE.

T1 sequence (P98170 whole entry): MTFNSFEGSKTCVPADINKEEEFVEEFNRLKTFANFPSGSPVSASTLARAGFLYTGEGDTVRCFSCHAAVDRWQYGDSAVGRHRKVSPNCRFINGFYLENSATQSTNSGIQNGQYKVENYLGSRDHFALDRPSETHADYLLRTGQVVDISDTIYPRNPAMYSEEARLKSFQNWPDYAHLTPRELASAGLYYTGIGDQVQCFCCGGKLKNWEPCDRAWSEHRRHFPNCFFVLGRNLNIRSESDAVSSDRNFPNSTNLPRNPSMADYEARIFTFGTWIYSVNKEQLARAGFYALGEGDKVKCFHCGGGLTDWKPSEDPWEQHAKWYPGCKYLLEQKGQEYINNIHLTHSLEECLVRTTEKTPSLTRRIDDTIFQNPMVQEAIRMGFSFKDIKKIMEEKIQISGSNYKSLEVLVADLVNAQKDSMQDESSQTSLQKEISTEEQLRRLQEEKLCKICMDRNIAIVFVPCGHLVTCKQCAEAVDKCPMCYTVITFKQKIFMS

Consider “AVAPYIPDQATLLR QWRFLATVVL (AVAFYIPDQATLLRQWRFLATVVL; Drosophila melanogaster) [Peptide R15W]”, for which the “XIAP self-conjugation in vitro” value in the data set with XIAP [1] was “greatest effect”.

With “His-UBCD1 (Drosophila ubiquitin conjugating enzyme UbcD1, purified from E. coli)”, the “in vitro ubiquitination of 35S-DIAP1 (E1, His-UBCD1, ubiquitin; SDS-PAGE, Phosphorimaging)” value in data set [2] is “Wild-type DIAP1 (lane 4) showed marked ubiquitination”; in data set [3], “the His-DIAP1^21-4S mutant (RING domain mutant) did not (lane 7), in the presence of ubcD1”.

With “AVPFYLPE QWRFLATVVL (AVPFYLPEQWRFLATVVL; Drosophila melanogaster) [Peptide H9-W]”, the “XIAP self-conjugation in vitro” value with XIAP [1] is “greatest effect”.

B1: Reaper: Drosophila IAP inhibitor (IAPi) protein REAPER, wild type; used as protein or expressed from a transgene/plasmid (protein)
chain: MAVAFYIPDQATLLREAEQKEQQILRLRESQWRFLATVVLETLRQYTSCHPKTGRKSGKYRKPSQ
For the molecule B1, the “DIAP1 downregulation in embryos” value in the data set on DIAP1 [4] (RING domain mutant background, diap1 33-1S and diap1 22-8S alleles) is on record as “no longer able to downregalate DIAP1”. Moreover, the “DIAP1 protein levels in embryos” value in the data set on DIAP1 [4] (expression under prd-Gal4 driver, wild type diap1) was “DIAP1 protein levels decrease”. For the same molecule, the diap1-lacZ expression result in the data set with DIAP1 [4] (wing imaginal disc posterior compartment, co-expressed with p35 under en-Gal4) was “increased”. The anti-DIAP1 labeling result with DIAP1 [4] (wing imaginal disc posterior compartment, co-expressed with p35 under en-Gal4, compared to anterior compartment) was “reduced anti-DIAP1 labeling”. For the same molecule, the “IAP (Diap1) protein level / half-life” value with Diap1 in Cos-7 cells is given as “dramatic reduction in detectable IAP protein”. Further, the “auto-ubiquitination of human XIAP” value with XIAP [5] is on record as “strongly stimulated”. Moreover, the “IAP (DIAP1) self-conjugation / auto-ubiquitination in vitro” value with DIAP1 [6] is reported as “resulted in auto-ubiquitination”.
